Test results reported in patent EP1557432B1.

Biological target: TBP-hCGβ(20-190)
Assay: sandwich immunoassay for the hCG heterodimer (anti-hCG β capture, anti-TSH α detection), COS-7 cotransfection of α and β fusions

For TBP-hCGα(20-190), the Concentration (ng/ml) of heterodimer in hCG heterodimer assay was 38 ng/mL.
